Test results: patent US20160108115 (published 2016)

Assays:
FcγRIIa = target: T1, FcγRIIa (human, UniProt P12318); assay: SPR, pH 7.4
T1 chain: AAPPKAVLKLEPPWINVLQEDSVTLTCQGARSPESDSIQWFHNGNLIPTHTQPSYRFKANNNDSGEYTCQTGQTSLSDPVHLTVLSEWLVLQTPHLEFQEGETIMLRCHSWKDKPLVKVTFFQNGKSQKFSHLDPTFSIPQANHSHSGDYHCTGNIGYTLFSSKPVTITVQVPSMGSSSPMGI

FcγRIIIa [1] = target: T2, FcγRIIIa (human, UniProt P08637); assay: SPR, pH 7.4
FcγRIIIa [2] = target: T2, FcγRIIIa; assay: ELISA, immune complexes
FcγRIIb/c = target: T3, FcγRIIb/c (human, UniProt P31994); assay: SPR, pH 7.4
T3 chain: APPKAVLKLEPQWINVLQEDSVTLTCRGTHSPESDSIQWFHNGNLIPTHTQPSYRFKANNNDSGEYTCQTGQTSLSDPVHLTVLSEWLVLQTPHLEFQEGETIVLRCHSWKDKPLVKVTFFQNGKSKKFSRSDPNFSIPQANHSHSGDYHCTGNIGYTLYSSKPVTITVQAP

FcγRIIIb [3] = target: T4, FcγRIIIb (human, UniProt O75015); assay: SPR, pH 7.4
T4 chain: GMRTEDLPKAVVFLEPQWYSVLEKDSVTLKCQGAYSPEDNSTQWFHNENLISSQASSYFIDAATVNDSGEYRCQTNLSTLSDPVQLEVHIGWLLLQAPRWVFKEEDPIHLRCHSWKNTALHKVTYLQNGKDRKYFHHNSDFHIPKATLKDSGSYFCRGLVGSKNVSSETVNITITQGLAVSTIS

[4] = target: the molecule itself; assay: SPR, pH 7.4, self-association, GMP batch
FcγRIIIb [5] = target: T4, FcγRIIIb; assay: ELISA, immune complexes
FcγRI [6] = target: T5, FcγRI (human, UniProt P12314); assay: ELISA, immune complexes
T5 chain: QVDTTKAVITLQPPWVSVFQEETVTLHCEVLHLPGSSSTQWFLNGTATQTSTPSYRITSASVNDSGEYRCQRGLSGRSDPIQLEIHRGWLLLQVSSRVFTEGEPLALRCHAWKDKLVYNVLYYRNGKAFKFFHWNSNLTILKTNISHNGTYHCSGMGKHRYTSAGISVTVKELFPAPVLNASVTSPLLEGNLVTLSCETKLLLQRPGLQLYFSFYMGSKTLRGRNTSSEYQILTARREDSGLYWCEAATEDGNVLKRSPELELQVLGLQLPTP

FcγRI [7] = target: T5, FcγRI; assay: SPR, pH 7.4
[8] = target: the molecule itself; assay: SPR, pH 7.4, self-association, engineering batch

T2 sequence (P08637 17-208): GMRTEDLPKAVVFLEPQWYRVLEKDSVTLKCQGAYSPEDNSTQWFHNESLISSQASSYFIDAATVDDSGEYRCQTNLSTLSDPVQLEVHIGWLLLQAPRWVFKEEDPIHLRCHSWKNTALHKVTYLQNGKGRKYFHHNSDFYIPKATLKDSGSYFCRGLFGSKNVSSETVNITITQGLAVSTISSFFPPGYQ

Kd (FcγRIIa): 2.31 µM | Kd (FcγRIIIa [1]): 7.23 µM | binding result (FcγRIIIa [2]): no binding | Kd (FcγRIIb/c): 8.09 µM | Kd (FcγRIIIb [3]): 3.33 µM | binding result (FcγRIIIb [5]): no binding | binding result (FcγRI [6]): no binding | Kd (FcγRI [7]): 3.75 µM
B1: BNJ441 (full length) (antibody)
chain 1: QVQLVQSGAEVKKPGASVKVSCKASGHIFSNYWIQWVRQAPGQGLEWMGEILPGSGHTEYTENFKDRVTMTRDTSTSTVYMELSSLRSEDTAVYYCARYFFGSSPNWYFDVWGQGTLVTVSSASTKGPSVFPLAPCSRSTSESTAALGCLVKDYFPEPVTVSWNSGALTSGVHTFPAVLQSSGLYSLSSVVTVPSSNFGTQTYTCNVDHKPSNTKVDKTVERKCCVECPPCPAPPVAGPSVFLFPPKPKDTLMISRTPEVTCVVVDVSQEDPEVQFNWYVDGVEVHNAKTKPREEQFNSTYRVVSVLTVLHQDWLNGKEYKCKVSNKGLPSSIEKTISKAKGQPREPQVYTLPPSQEEMTKNQVSLTCLVKGFYPSDIAVEWESNGQPENNYKTTPPVLDSDGSFFLYSRLTVDKSRWQEGNVFSCSVLHEALHSHYTQKSLSLSLGK
chain 2: DIQMTQSPSSLSASVGDRVTITCGASENIYGALNWYQQKPGKAPKLLIYGATNLADGVPSRFSGSGSGTDFTLTISSLQPEDFATYYCQNVLNTPLTFGQGTKVEIKRTVAAPSVFIFPPSDEQLKSGTASVVCLLNNFYPREAKVQWKVDNALQSGNSQESVTEQDSKDSTYSLSSTLTLSKADYEKHKVYACEVTHQGLSSPVTKSFNRGEC
Kd [4]: 270 µM | Kd [8]: 7100 µM
